Measurements: publication PMC8850660, “The P300 acetyltransferase inhibitor C646 promotes membrane translocation of insulin receptor protein substrate and interaction with the insulin receptor” (The Journal of Biological Chemistry, 2022)

Molecular target: unphosphorylated beta subunit of the insulin receptor (IRβ), recombinant (UniProt P06213)
Assay: SPR; Biacore T200, unphosphorylated IRβ immobilised on a CM5 chip; same amounts of IRS1 or IRS2 injected together with different (nM) concentrations of C646; HBS-P buffer (10 mM Hepes, 150 mM NaCl, 0.05% P20, pH 7.4), 30 μl/min, 25 °C; global fit to 1:1 Langmuir model

Chain of unphosphorylated beta subunit of the insulin receptor (IRβ), recombinant (P06213 763-1382): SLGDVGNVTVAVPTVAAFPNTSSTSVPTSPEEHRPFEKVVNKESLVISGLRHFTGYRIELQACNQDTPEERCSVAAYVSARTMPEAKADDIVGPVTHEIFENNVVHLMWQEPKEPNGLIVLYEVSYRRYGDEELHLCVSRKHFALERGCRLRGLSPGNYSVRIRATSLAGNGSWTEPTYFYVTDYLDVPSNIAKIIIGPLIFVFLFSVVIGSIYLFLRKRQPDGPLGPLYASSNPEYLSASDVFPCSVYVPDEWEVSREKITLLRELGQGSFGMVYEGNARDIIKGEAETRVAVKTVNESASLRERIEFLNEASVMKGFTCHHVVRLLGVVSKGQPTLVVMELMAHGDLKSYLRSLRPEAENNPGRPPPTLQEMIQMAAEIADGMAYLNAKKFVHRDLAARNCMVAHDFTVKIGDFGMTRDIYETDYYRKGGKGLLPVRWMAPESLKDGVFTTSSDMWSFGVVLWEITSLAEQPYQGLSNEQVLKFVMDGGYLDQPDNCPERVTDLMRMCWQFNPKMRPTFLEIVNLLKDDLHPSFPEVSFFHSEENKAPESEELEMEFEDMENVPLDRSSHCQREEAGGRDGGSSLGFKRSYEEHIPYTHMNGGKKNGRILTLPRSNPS

KD with C646 | Substance
2.86e-13 | purified IRS1 protein (insulin receptor substrate 1) (from UniProt P35569 1-1233) (natural protein)
7.6e-12 | purified IRS2 protein (insulin receptor substrate 2) (from UniProt P81122 1-1321) (natural protein)
